Our source for the protein stability index values is the supplement of paper PMC10567573.

Sequences and labels used below:
B1: FUNDC2 (parent)
chain: YIKVDWQRVEKDMKKAKEQLKIRK
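Further: lentivirally expressed fusions sorted by FACS into six bins by GFP to DsRed ratio, PSI derived from sequencing read proportions per bin multiplied by bin number.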

The variants in the data set derive from B1. Nature of the data set: protein stability index of a GFP-peptide fusion (GPS, HEK-293T) (PSI 1-6); higher = more stable. The settings on record: c terminus: a fixed tail appended.
Take YIKVDWQRVEKDMLKAKEQLKIRK [K14L]: the protein stability index was 2.19.
Turning to YIKVDWQRVEKDMTKAKEQLKIRK [K14T], the protein stability index is 1.92.
For YIKVDWQRVEKDMEKAKEQLKIRK [K14E], the protein stability index was found to be 1.42.
YIKVDWQRVEKDMWKAKEQLKIRK [K14W]: the protein stability index is 2.1.
Consider YIKVDWQRVEKDMMKAKEQLKIRK [K14M], for which the protein stability index is 1.9.
Turning to YIKVDWQRVEKDMVKAKEQLKIRK [K14V], the protein stability index was determined as 1.92.
The figure for YIKVDWQRVEKDMYKAKEQLKIRK [K14Y] is 4.38; for YIKVDWQRVEKDMCKAKEQLKIRK [K14C] it is 1.83; for YIKVDWQRVEKDMPKAKEQLKIRK [K14P] it is 1.86.
As to YIKVDWQRVEKDMIKAKEQLKIRK [K14I], the protein stability index came to 1.67.
Take YIKVDWQRVEKDMQKAKEQLKIRK [K14Q]: the protein stability index stood at 1.72.
On to YIKVDWQRVEKDMNKAKEQLKIRK [K14N], for which the protein stability index was found to be 1.61.
For YIKVDWQRVEKDMDKAKEQLKIRK [K14D], the protein stability index came to 1.65.
For the variant YIKVDWQRVEKDMFKAKEQLKIRK [K14F], the protein stability index is 1.51.
The figure for YIKVDWQRVEKDMAKAKEQLKIRK [K14A] is 1.6; for YIKVDWQRVGKDMKKAKEQLKIRK [E10G] it is 1.09; for YIKVDWQRVSKDMKKAKEQLKIRK [E10S] it is 2.33.
For YIKVDWQRVFKDMKKAKEQLKIRK [E10F], the protein stability index came to 1.78.
As for YIKVDWQRVLKDMKKAKEQLKIRK [E10L], the protein stability index worked out at 1.65.
Take YIKVDWQRVWKDMKKAKEQLKIRK [E10W]: the protein stability index amounted to 1.56.
As to YIKVDWQRVPKDMKKAKEQLKIRK [E10P], the protein stability index turned out to be 1.77.
Turning to YIKVDWQRVTKDMKKAKEQLKIRK [E10T], the protein stability index was 2.36.
Turning to YIKVDWQRVYKDMKKAKEQLKIRK [E10Y], the protein stability index worked out at 1.79.
Turning to YIKVDWQRVVKDMKKAKEQLKIRK [E10V], the protein stability index came to 1.52.
Consider YIKVDWQRVDKDMKKAKEQLKIRK [E10D], for which the protein stability index is 1.85.
For YIKVDWQRVKKDMKKAKEQLKIRK [E10K], the protein stability index came out at 1.73.
With YIKVDWQRVRKDMKKAKEQLKIRK [E10R], the protein stability index was 1.27.
The figure for YIKVDWQRVMKDMKKAKEQLKIRK [E10M] is 1.73.
For YIKVDWQRVQKDMKKAKEQLKIRK [E10Q], the protein stability index amounted to 1.36.
For the variant YIKVDWQRVAKDMKKAKEQLKIRK [E10A], the protein stability index is 1.92.
As to YIKVDWQRVNKDMKKAKEQLKIRK [E10N], the protein stability index turned out to be 1.62.
In the case of YIKVDWQRVHKDMKKAKEQLKIRK [E10H], the protein stability index worked out at 2.58.
With YIKVDWQRVEKDMKKASEQLKIRK [K17S], the protein stability index is 2.62.
For the variant YIKVDWQRVEKDMKKAGEQLKIRK [K17G], the protein stability index is 2.69.
As for YIKVDWQRVEKDMKKAMEQLKIRK [K17M], the protein stability index was 2.83.
As for YIKVDWQRVEKDMKKAHEQLKIRK [K17H], the protein stability index is 1.94.
On to YIKVDWQRVEKDMKKAAEQLKIRK [K17A], for which the protein stability index is 1.64.
Consider YIKVDWQRVEKDMKKAVEQLKIRK [K17V], for which the protein stability index is 1.64.
For YIKVDWQRVEKDMKKAPEQLKIRK [K17P], the protein stability index came to 1.79.
As for YIKVDWQRVEKDMKKAREQLKIRK [K17R], the protein stability index was 2.27.
YIKVDWQRVEKDMKKACEQLKIRK [K17C]: the protein stability index came to 2.19.
As for YIKVDWQRVEKDMKKAEEQLKIRK [K17E], the protein stability index came out at 2.15.
In the case of YIKVDWQRVEKDMKKADEQLKIRK [K17D], the protein stability index is 1.67.
As to YIKVDWQRVEKDMKKALEQLKIRK [K17L], the protein stability index was determined as 2.21.
In the case of YIKVDWQRVEKDMKKATEQLKIRK [K17T], the protein stability index came out at 1.62.
For YIKVDWQRVEKDMKKAIEQLKIRK [K17I], the protein stability index was found to be 1.71.
For the variant YIKVDWQRVEKDMKKAFEQLKIRK [K17F], the protein stability index was 2.62.
Next, YIKVDWQRVEKDMKKAWEQLKIRK [K17W]: 1.66.
With YIKVDWQRVEKDMKKANEQLKIRK [K17N], the protein stability index turned out to be 1.95.
Turning to YIKVDWQRVEKDMKKAYEQLKIRK [K17Y], the protein stability index was found to be 2.37.
Consider YIKVDWQRVEKDMKKAQEQLKIRK [K17Q], for which the protein stability index came out at 1.65.
Next, YIKVDWQRVEKDMKPAKEQLKIRK [K15P]: 1.72; YIKVDWQRVEKDMKWAKEQLKIRK [K15W]: 1.94.
As to YIKVDWQRVEKDMKDAKEQLKIRK [K15D], the protein stability index was determined as 2.05.
Consider YIKVDWQRVEKDMKEAKEQLKIRK [K15E], for which the protein stability index turned out to be 1.55.
As for YIKVDWQRVEKDMKHAKEQLKIRK [K15H], the protein stability index was 1.44.
As for YIKVDWQRVEKDMKQAKEQLKIRK [K15Q], the protein stability index amounted to 2.5.
With YIKVDWQRVEKDMKFAKEQLKIRK [K15F], the protein stability index came out at 1.42.
The figure for YIKVDWQRVEKDMKMAKEQLKIRK [K15M] is 1.79; for YIKVDWQRVEKDMKIAKEQLKIRK [K15I] it is 2.01.
With YIKVDWQRVEKDMKAAKEQLKIRK [K15A], the protein stability index was 1.78.
YIKVDWQRVEKDMKLAKEQLKIRK [K15L]: the protein stability index amounted to 2.19.
As to YIKVDWQRVEKDMKCAKEQLKIRK [K15C], the protein stability index worked out at 2.35.
The figure for YIKVDWQRVEKDMKRAKEQLKIRK [K15R] is 1.92; for YIKVDWQRVEKDMKNAKEQLKIRK [K15N] it is 1.88; for YIKVDWQRVEKDMKTAKEQLKIRK [K15T] it is 2.11.
Consider YIKVDWQRVEKDMKVAKEQLKIRK [K15V], for which the protein stability index came to 2.39.
As for YIKVDWQRVEKDMKGAKEQLKIRK [K15G], the protein stability index came out at 1.89.
As to YIKVDWQRVEKDMKSAKEQLKIRK [K15S], the protein stability index came out at 1.65.
For the variant YIKVDWQRVEKDMKYAKEQLKIRK [K15Y], the protein stability index was 2.14.
On to YIKVDWQRVEKVMKKAKEQLKIRK [D12V], for which the protein stability index turned out to be 3.62.
For YIKVDWQRVEKQMKKAKEQLKIRK [D12Q], the protein stability index was determined as 2.63.
As to YIKVDWQRVEKRMKKAKEQLKIRK [D12R], the protein stability index is 1.91.
On to YIKVDWQRVEKPMKKAKEQLKIRK [D12P], for which the protein stability index came to 1.45.
Regarding YIKVDWQRVEKEMKKAKEQLKIRK [D12E], the protein stability index worked out at 1.82.
With YIKVDWQRVEKYMKKAKEQLKIRK [D12Y], the protein stability index turned out to be 3.43.
Regarding YIKVDWQRVEKTMKKAKEQLKIRK [D12T], the protein stability index stood at 1.74.
Consider YIKVDWQRVEKGMKKAKEQLKIRK [D12G], for which the protein stability index is 2.68.
Consider YIKVDWQRVEKLMKKAKEQLKIRK [D12L], for which the protein stability index turned out to be 2.8.
Consider YIKVDWQRVEKNMKKAKEQLKIRK [D12N], for which the protein stability index stood at 1.47.
Regarding YIKVDWQRVEKHMKKAKEQLKIRK [D12H], the protein stability index is 1.03.
YIKVDWQRVEKMMKKAKEQLKIRK [D12M]: the protein stability index was 2.97.
Consider YIKVDWQRVEKDMKKAKEMLKIRK [Q19M], for which the protein stability index worked out at 2.57.
The figure for YIKVDWQRVEKDMKKAKEALKIRK [Q19A] is 1.86.
For YIKVDWQRVEKDMKKAKEELKIRK [Q19E], the protein stability index stood at 2.68.
Regarding YIKVDWQRVEKDMKKAKENLKIRK [Q19N], the protein stability index worked out at 1.81.
With YIKVDWQRVEKDMKKAKEHLKIRK [Q19H], the protein stability index stood at 1.33.
With YIKVDWQRVEKDMKKAKEKLKIRK [Q19K], the protein stability index stood at 1.32.
The figure for YIKVDWQRVEKDMKKAKEILKIRK [Q19I] is 1.49.
For YIKVDWQRVEKDMKKAKEFLKIRK [Q19F], the protein stability index was 1.56.
The figure for YIKVDWQRVEKDMKKAKELLKIRK [Q19L] is 2.43; for YIKVDWQRVEKDMKKAKEPLKIRK [Q19P] it is 1.82.
In the case of YIKVDWQRVEKDMKKAKEDLKIRK [Q19D], the protein stability index stood at 1.98.
For the variant YIKVDWQRVEKDMKKAKECLKIRK [Q19C], the protein stability index was determined as 1.43.
